The values that follow come from patent US20190111149A1 (MEDITOPE BIOSCIENCES, published 2019).

A word on the Kd: it is a measure of binding affinity in units of concentration. A lower Kd goes with higher affinity.

Experiment [1] concerns the target T1, Meditope enabled Lintuzumab.
T1 construct: also called Lintuzumab enabled
The experiment is described as follows: BLI Octet, antibody on anti-human Fc tip, peptide 12 nM.

Experiment [2] shares this target. In words: BLI Octet, antibody on anti-human Fc tip, peptide 1000 nM; Peptide 20. In general terms: In BLI a coated tip is dipped into the sample, and binding shifts an interference pattern.
Experiment [3] shares this target. The experiment is described as follows: BLI Octet, antibody on anti-human Fc tip, peptide 111 nM.
Experiment [4] has the same target. The experiment is described as follows: BLI Octet, antibody on anti-human Fc tip, peptide 333 nM.
For experiment [5] the target is unchanged. The experiment is described as follows: BLI Octet, antibody on anti-human Fc tip, peptide 37 nM.
Experiment [6] has as its target T2, Meditope enabled Panitumumab.
T2 construct: also called Panitumumab enabled
The experiment is described as follows: BLI Octet, antibody on anti-human Fc tip, peptide 12 nM.

Experiment [7] shares this target. The experiment is described as follows: BLI Octet, antibody on anti-human Fc tip, peptide 37 nM.
For experiment [8], the target named is T3, Meditope enabled Trastuzumab.
T3 construct: also called Trastuzumab enabled
In words: BLI Octet, antibody on anti-human Fc tips.

The target of experiment [9] is T4, Photo optimized trastuzumab; meditope enabled (Tmab).
T4 construct: also called photo-optimized trastuzumab V2; photo-optimized meditope enabled Trastuzumab variant 2
The experiment is described as follows: BLI Octet, antibody on anti-human Fc tips; Peptide 19, Table 9.

For another experiment, the target named is MBI_CD19_2; (MOR208). The experiment is described as follows: BLI Octet, antibody on anti-human Fc tips.
Experiment [10] deals with T5, Meditope enabled Clivatuzumab.
T5 construct: also called Clivatuzumab enabled
In words: BLI Octet, antibody on anti-human Fc tips.

For a further experiment, the target named is MBI_CD19_1; (SAR3419). In words: BLI Octet, antibody on anti-human Fc tips.
Experiment [11] deals with T6, Meditope enabled Ocaratuzumab.
T6 construct: also called Ocaratuzumab enabled
The experiment is described as follows: BLI Octet, antibody on anti-human Fc tips.

The target in experiment [12] is T4, Photo optimized trastuzumab; meditope …. In words: BLI Octet, antibody on anti-human Fc tips.
Experiment [13] shares this target. The experiment is described as follows: BLI Octet, antibody on anti-human Fc tips. This is another data set of the same source.

T1 sequence (VH, as listed by the source, chain 1 of 2): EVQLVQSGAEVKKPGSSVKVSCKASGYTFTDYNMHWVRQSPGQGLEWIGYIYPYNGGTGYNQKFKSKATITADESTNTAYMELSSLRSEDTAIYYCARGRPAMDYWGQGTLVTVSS
T1 sequence (VL, as listed by the source, chain 2 of 2): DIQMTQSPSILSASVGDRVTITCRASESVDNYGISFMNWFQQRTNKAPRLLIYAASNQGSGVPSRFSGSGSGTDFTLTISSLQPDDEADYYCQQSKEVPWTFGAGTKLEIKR
T4 sequence (heavy, as listed by the source, chain 1 of 2): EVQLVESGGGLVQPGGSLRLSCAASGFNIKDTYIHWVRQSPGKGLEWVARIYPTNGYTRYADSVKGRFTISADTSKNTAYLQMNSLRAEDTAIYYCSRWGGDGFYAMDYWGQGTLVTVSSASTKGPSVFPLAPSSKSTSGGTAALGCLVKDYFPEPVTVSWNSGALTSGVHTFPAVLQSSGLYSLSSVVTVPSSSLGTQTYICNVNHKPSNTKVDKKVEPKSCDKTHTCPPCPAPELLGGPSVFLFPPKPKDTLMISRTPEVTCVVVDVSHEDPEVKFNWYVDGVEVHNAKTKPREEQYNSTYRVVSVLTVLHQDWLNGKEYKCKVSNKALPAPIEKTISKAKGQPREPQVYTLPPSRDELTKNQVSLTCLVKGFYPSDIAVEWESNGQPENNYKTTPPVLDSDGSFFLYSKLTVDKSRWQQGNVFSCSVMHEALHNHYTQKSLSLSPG
T4 sequence (light, as listed by the source, chain 2 of 2): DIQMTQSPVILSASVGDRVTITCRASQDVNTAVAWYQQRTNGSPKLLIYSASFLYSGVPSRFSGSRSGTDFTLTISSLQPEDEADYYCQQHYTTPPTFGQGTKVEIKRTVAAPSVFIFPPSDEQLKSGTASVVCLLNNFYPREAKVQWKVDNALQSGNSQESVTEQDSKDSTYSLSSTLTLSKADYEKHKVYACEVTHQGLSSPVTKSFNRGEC
T2 sequence (VH, as listed by the source, chain 1 of 2): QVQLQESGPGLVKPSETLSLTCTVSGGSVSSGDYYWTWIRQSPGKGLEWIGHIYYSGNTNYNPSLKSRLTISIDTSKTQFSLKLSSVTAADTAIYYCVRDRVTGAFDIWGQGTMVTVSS
T2 sequence (VL, as listed by the source, chain 2 of 2): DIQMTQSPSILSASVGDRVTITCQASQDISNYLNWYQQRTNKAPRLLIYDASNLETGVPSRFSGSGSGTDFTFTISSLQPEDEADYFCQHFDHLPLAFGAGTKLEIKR
MBI_CD19_1; (SAR3419), sequence (heavy, as listed by the source, chain 1 of 2): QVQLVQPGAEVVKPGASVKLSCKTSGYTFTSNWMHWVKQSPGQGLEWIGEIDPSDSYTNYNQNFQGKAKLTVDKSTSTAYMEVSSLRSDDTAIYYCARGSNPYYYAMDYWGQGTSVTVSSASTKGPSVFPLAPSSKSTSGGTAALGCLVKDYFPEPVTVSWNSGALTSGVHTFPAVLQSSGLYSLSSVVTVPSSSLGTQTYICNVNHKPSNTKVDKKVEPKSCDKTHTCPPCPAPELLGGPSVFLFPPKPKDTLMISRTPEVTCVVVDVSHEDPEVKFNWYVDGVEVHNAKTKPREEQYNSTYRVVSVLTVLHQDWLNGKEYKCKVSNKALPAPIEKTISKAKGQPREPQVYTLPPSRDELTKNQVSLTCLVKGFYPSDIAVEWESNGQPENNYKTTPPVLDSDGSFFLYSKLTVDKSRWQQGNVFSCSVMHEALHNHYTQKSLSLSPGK
MBI_CD19_1; (SAR3419), sequence (light, as listed by the source, chain 2 of 2): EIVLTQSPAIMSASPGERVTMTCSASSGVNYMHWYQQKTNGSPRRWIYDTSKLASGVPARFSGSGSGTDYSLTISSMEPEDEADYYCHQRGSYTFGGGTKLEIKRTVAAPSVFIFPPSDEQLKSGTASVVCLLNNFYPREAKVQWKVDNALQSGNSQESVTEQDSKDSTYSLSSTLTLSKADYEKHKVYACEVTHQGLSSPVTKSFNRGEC
T5 sequence (heavy, as listed by the source, chain 1 of 2): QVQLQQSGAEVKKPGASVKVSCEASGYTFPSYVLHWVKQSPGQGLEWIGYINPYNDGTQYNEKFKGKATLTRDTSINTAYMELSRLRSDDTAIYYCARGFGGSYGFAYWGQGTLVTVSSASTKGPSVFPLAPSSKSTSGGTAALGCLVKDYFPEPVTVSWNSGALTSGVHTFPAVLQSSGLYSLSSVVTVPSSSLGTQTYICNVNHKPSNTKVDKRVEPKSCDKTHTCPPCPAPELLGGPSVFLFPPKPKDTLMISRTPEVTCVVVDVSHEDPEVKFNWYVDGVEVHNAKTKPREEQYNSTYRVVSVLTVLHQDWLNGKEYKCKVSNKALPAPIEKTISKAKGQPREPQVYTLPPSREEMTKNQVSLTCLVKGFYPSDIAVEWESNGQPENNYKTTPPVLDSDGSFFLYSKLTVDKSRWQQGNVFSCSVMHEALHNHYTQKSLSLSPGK
T5 sequence (light, as listed by the source, chain 2 of 2): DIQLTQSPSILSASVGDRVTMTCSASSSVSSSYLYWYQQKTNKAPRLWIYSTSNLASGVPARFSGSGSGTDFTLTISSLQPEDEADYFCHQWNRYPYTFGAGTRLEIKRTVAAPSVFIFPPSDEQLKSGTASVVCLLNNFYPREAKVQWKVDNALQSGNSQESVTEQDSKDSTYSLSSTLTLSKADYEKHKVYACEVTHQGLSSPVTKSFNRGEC
T6 sequence (heavy, as listed by the source, chain 1 of 2): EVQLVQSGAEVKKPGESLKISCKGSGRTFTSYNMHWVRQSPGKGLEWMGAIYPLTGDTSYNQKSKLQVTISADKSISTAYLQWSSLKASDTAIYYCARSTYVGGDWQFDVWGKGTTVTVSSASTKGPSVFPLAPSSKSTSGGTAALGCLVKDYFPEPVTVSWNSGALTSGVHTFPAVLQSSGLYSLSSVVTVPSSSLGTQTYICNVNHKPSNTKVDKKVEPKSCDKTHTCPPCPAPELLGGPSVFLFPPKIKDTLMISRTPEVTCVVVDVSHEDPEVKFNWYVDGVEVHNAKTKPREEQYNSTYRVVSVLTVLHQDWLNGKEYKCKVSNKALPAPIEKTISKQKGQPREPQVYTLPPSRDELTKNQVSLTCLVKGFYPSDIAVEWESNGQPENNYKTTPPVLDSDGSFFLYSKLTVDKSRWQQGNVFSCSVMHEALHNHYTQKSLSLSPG
T6 sequence (light, as listed by the source, chain 2 of 2): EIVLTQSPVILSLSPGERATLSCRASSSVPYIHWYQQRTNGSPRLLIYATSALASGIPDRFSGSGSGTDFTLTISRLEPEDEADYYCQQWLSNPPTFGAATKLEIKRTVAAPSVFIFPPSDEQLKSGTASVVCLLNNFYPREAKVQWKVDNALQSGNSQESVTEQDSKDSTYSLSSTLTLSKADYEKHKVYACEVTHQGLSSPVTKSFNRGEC
T3 sequence (heavy, as listed by the source, chain 1 of 2): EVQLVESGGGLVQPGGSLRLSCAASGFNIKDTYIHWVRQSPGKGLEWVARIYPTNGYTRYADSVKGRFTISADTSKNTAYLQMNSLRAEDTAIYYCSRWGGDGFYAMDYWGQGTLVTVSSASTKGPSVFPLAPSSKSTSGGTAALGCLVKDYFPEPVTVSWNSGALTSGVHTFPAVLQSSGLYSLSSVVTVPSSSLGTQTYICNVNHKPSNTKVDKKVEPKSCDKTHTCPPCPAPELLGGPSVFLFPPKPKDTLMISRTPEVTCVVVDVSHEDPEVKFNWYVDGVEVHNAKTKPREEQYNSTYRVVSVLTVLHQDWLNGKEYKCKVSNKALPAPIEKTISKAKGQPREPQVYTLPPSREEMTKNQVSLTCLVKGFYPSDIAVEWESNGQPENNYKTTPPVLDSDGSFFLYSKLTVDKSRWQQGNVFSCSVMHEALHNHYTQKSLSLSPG
T3 sequence (light, as listed by the source, chain 2 of 2): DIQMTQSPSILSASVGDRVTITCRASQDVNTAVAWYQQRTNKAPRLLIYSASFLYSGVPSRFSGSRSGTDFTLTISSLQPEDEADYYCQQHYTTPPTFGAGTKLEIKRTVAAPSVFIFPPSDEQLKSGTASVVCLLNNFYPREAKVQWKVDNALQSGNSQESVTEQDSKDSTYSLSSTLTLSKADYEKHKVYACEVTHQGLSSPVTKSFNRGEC
MBI_CD19_2; (MOR208), sequence (heavy, as listed by the source, chain 1 of 2): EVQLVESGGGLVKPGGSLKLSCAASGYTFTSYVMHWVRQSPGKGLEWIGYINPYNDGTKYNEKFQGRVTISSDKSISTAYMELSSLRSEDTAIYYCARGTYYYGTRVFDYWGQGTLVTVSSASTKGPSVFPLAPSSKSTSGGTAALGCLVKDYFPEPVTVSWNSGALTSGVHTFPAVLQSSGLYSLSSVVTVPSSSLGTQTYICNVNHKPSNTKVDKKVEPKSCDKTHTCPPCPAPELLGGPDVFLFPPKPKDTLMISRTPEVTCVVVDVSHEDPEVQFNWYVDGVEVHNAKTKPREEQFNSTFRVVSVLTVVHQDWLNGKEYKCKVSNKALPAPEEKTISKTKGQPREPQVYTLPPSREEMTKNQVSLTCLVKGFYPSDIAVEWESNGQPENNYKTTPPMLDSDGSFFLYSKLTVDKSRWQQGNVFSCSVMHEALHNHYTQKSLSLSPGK
MBI_CD19_2; (MOR208), sequence (light, as listed by the source, chain 2 of 2): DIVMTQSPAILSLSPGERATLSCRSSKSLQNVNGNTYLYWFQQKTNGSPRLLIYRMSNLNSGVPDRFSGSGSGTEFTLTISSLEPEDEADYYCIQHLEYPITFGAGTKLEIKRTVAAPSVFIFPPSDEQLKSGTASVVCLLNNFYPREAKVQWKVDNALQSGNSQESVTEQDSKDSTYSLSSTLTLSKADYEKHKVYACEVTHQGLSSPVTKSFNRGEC

B1: Peptide 20: Ac-…XRCGGGK with Duostatin; -Glu-vc-PAB-Duostatin-; X=(S)-2-amino-6-(3-methyl-3H-diazirin-3-yl) hexanoic acid (peptide)
peptide: not shown
modifications: N-terminal acetyl; X at position 10 = (S)-2-amino-6-(3-methyl-3H-diazirin-3-yl)hexanoic acid; -Glu-vc-PAB-Duostatin conjugated
As for B1, the dissociation constant Kd in experiment [1] turned out to be 246 nM; in [2], 19800 nM; in [3], 3340 nM; in experiment [4], 6550 nM; in experiment [5], 1210 nM.

B2: Peptide 19: Ac-…XRCGGGK with Duostatin; -Glu-vc-PAB-Duostatin-; X=(S)-2-amino-5-(3-methyl-3H-diazirin-3-yl) pentanoic acid (peptide)
peptide: not shown
modifications: N-terminal acetyl; X at position 10 = (S)-2-amino-5-(3-methyl-3H-diazirin-3-yl)pentanoic acid; -Glu-vc-PAB-Duostatin conjugated
notes: 5-carbon chain at position 10
Take B2: the dissociation constant (Kd) is < 0.001 nM in experiment [6]; 55.5 nM in [1]; 3000 nM in [3]; 1170 nM in experiment [4]; < 0.001 nM in experiment [7]; 5680 nM in experiment [5].

B3: Peptide 19: Ac-…XRCGGGK with Duostatin; -Glu-vc-PAB-Duostatin-; X = (S)-2-amino-5-(3-methyl-3H-diazirin-3-yl) pentanoic acid (peptide)
peptide: not shown
modifications: N-terminal acetyl; X10 = (S)-2-amino-5-(3-methyl-3H-diazirin-3-yl)pentanoic acid; Glu-vc-PAB-Duostatin conjugated
notes: also called Peptide 19 (with Duostatin); Peptide 19 (with 1 Duostatin per peptide, DAR 2)
With B3, the Kd in experiment [8] stood at 149 nM; in [9], 120 nM; with MBI_CD19_2; (MOR208), 33.8 nM; in [12], 33.8 nM; in [13], 42.8 nM. Further, the binding result (in [10]; with MBI_CD19_1; (SAR3419); in experiment [11]) was “no binding” each time.
